The values that follow come from patent US20240321457A1 (University of California, published 2024).

For experiment [1], the target named is T1, UBE2N (human, UniProt P61088 1-152).
T1 construct: endogenous prey from cell lysate; also called UBC13
T1 sequence (looked up): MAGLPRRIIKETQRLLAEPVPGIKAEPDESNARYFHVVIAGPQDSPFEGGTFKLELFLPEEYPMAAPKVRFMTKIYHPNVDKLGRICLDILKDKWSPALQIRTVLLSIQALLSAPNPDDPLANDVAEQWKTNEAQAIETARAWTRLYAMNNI
Put plainly: AP-MS, PPI score from compPASS and SAINTexpress, MDA-MB-231 cells.
Description: For AP-MS experiments, samples were resuspended in 15 μL of MS loading buffer (4% formic acid, 2% acetonitrile) and 2 μL were separated by a reversed-phase gradient over a nanoflow 75 μm ID×25 cm long picotip column packed with 1.9 μM C18 particles (Dr. Maisch). Peptides were directly injected over the course of a 75 min acquisition into a Q-Exactive Plus mass spectrometer (Thermo), or over the course of a 90 min acquisition into a Orbitrap Elite mass spectrometer. […] Peptides and proteins were filtered to 1% false discovery rate in MaxQuant, and identified proteins were then subjected to protein-protein interaction scoring.
All PPI scoring was performed separately for each cell line. For SAINTexpress, control samples in which bait protein was not induced by addition of doxycycline were used. For CompPASS, a stats table representing all WT baits was used. After scoring, the CompPASS WD and Z-score were normalized within a given bait for each cell line. The total list of candidate PPIs was filtered to those that met the following criteria: SAINTexpress BFDR=<0.05, WD percentile by bait>=0.95, and Z-score percentile by bait≤=0.95. PPIs passing all 3 of these criteria were considered to be high-confidence PPIs. To enable visualization and analysis of PPIs by confidence score among these 3 criteria, a PPI score was calculated: [(WD percentile by bait+Z-score percentile by bait)/2)+(1−BFDR)]/2.

The target in experiment [2] is T1, UBE2N. As to the kind of experiment: quantitative AP-MS, prey abundance normalised to bait, MDA-MB-231 cells.
In experiment [3] the target is T2, BRCA1 S1655F (human, UniProt P38398 1-1863).
T2 construct: 3xFLAG-tagged bait; also called BRCT domain mutant S1655F; 51655F
Put plainly: AP-MS, 3xFLAG bait, MDA-MB-231 cells.

The target of experiment [4] is T3, BRCA1 5382insC (human, UniProt P38398 1-1755, limits assumed).
T3 construct: 3xFLAG-tagged bait; also called 5832insC
Put plainly: AP-MS, 3xFLAG bait, MDA-MB-231 cells.

Experiment [5] has as its target T4, BRCA1 M1775R (human, UniProt P38398 1-1863).
T4 construct: 3xFLAG-tagged bait; also called BRCT domain mutant M1775R
Put plainly: AP-MS, 3xFLAG bait, MDA-MB-231 cells.

Experiment [6] addresses T2, BRCA1 S1655F. As to the kind of experiment: AP-MS, MSstats WT vs mutant, MDA-MB-231 cells.
The target in experiment [7] is T3, BRCA1 5382insC. Put plainly: AP-MS, MSstats WT vs mutant, MDA-MB-231 cells.
In experiment [8] the target is T4, BRCA1 M1775R. Put plainly: AP-MS, MSstats WT vs mutant, MDA-MB-231 cells.
The next experiment addresses AKT3 E17K mutant (human, UniProt Q9Y243 1-479). Put plainly: AP-MS, 3xFLAG bait, breast cell lines.
For the next experiment, the target named is AKT1 E17K mutant (human, UniProt P31749 1-480). As to the kind of experiment: AP-MS, 3xFLAG bait, breast cell lines.
Sequence of AKT1 E17K mutant (P31749 whole entry E17K): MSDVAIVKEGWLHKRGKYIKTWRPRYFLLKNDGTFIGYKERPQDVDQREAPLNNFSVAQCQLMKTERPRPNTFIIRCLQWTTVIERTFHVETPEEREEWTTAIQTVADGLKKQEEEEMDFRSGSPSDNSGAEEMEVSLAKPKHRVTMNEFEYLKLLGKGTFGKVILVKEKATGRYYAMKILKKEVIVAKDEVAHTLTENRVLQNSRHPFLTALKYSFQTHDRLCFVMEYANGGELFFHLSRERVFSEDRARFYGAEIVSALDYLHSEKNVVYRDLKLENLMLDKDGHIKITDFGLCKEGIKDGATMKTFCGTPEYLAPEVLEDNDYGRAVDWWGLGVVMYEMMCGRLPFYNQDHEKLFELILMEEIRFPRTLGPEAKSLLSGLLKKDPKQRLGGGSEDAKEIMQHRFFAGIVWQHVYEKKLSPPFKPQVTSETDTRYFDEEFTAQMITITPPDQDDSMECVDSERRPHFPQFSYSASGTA

Sequence of AKT3 E17K mutant (Q9Y243 whole entry E17K): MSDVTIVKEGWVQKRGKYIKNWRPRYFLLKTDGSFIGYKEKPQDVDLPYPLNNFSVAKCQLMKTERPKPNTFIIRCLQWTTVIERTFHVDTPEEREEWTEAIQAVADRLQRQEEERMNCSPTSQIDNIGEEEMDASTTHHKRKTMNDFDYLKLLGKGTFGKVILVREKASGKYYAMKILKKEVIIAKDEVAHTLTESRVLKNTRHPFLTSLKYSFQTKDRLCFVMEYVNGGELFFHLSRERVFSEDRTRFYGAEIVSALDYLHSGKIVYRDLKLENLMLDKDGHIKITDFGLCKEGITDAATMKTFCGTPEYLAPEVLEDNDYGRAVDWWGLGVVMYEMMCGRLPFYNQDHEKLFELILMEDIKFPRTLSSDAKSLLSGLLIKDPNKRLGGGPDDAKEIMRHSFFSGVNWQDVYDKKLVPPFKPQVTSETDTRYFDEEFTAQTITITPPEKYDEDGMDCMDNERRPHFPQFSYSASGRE

B1: BRCA1 I26A (enzyme, human, UniProt P38398 1-1863, looked up)
chain: MDLSALRVEEVQNVINAMQKILECPACLELIKEPVSTKCDHIFCKFCMLKLLNQKKGPSQCPLCKNDITKRSLQESTRFSQLVEELLKIICAFQLDTGLEYANSYNFAKKENNSPEHLKDEVSIIQSMGYRNRAKRLLQSEPENPSLQETSLSVQLSNLGTVRTLRTKQRIQPQKTSVYIELGSDSSEDTVNKATYCSVGDQELLQITPQGTRDEISLDSAKKAACEFSETDVTNTEHHQPSNNDLNTTEKRAAERHPEKYQGSSVSNLHVEPCGTNTHASSLQHENSSLLLTKDRMNVEKAEFCNKSKQPGLARSQHNRWAGSKETCNDRRTPSTEKKVDLNADPLCERKEWNKQKLPCSENPRDTEDVPWITLNSSIQKVNEWFSRSDELLGSDDSHDGESESNAKVADVLDVLNEVDEYSGSSEKIDLLASDPHEALICKSERVHSKSVESNIEDKIFGKTYRKKASLPNLSHVTENLIIGAFVTEPQIIQERPLTNKLKRKRRPTSGLHPEDFIKKADLAVQKTPEMINQGTNQTEQNGQVMNITNSGHENKTKGDSIQNEKNPNPIESLEKESAFKTKAEPISSSISNMELELNIHNSKAPKKNRLRRKSSTRHIHALELVVSRNLSPPNCTELQIDSCSSSEEIKKKKYNQMPVRHSRNLQLMEGKEPATGAKKSNKPNEQTSKRHDSDTFPELKLTNAPGSFTKCSNTSELKEFVNPSLPREEKEEKLETVKVSNNAEDPKDLMLSGERVLQTERSVESSSISLVPGTDYGTQESISLLEVSTLGKAKTEPNKCVSQCAAFENPKGLIHGCSKDNRNDTEGFKYPLGHEVNHSRETSIEMEESELDAQYLQNTFKVSKRQSFAPFSNPGNAEEECATFSAHSGSLKKQSPKVTFECEQKEENQGKNESNIKPVQTVNITAGFPVVGQKDKPVDNAKCSIKGGSRFCLSSQFRGNETGLITPNKHGLLQNPYRIPPLFPIKSFVKTKCKKNLLEENFEEHSMSPEREMGNENIPSTVSTISRNNIRENVFKEASSSNINEVGSSTNEVGSSINEIGSSDENIQAELGRNRGPKLNAMLRLGVLQPEVYKQSLPGSNCKHPEIKKQEYEEVVQTVNTDFSPYLISDNLEQPMGSSHASQVCSETPDDLLDDGEIKEDTSFAENDIKESSAVFSKSVQKGELSRSPSPFTHTHLAQGYRRGAKKLESSEENLSSEDEELPCFQHLLFGKVNNIPSQSTRHSTVATECLSKNTEENLLSLKNSLNDCSNQVILAKASQEHHLSEETKCSASLFSSQCSELEDLTANTNTQDPFLIGSSKQMRHQSESQGVGLSDKELVSDDEERGTGLEENNQEEQSMDSNLGEAASGCESETSVSEDCSGLSSQSDILTTQQRDTMQHNLIKLQQEMAELEAVLEQHGSQPSNSYPSIISDSSALEDLRNPEQSTSEKAVLTSQKSSEYPISQNPEGLSADKFEVSADSSTSKNKEPGVERSSPSKCPSLDDRWYMHSCSGSLQNRNYPSQEELIKVVDVEEQQLEESGPHDLTETSYLPRQDLEGTPYLESGISLFSDDPESDPSEDRAPESARVGNIPSSTSALKVPQLKVAESAQSPAAAHTTDTAGYNAMEESVSREKPELTASTERVNKRMSMVVSGLTPEEFMLVYKFARKHHITLTNLITEETTHVVMKTDAEFVCERTLKYFLGIAGGKWVVSYFWVTQSIKERKMLNEHDFEVRGDVVNGRNHQGPKRARESQDRKIFRGLEICCYGPFTNMPTDQLEWMVQLCGASVVKELSSFTLGTGVHPIVVVQPDAWTEDNGFHAIGQMCEAPVVTREWVLDSVALYQCQELDTYLIPQIPHSHY
notes: 3xFLAG-tagged bait; printed I16A in the embodiments; also called RING domain mutant I26A
B1 showed a PPI score with UBE2N [1] of less than 0.6. In addition, the “fold reduction of associated prey compared to WT” value with UBE2N [2] is 6 fold.

B2: UIMC1 (other, human, UniProt Q96RL1 1-719, looked up)
chain: MPRRKKKVKEVSESRNLEKKDVETTSSVSVKRKRRLEDAFIVISDSDGEEPKEENGLQKTKTKQSNRAKCLAKRKIAQMTEEEQFALALKMSEQEAREVNSQEEEEEELLRKAIAESLNSCRPSDASATRSRPLATGPSSQSHQEKTTDSGLTEGIWQLVPPSLFKGSHISQGNEAEEREEPWDHTEKTEEEPVSGSSGSWDQSSQPVFENVNVKSFDRCTGHSAEHTQCGKPQESTGRGSAFLKAVQGSGDTSRHCLPTLADAKGLQDTGGTVNYFWGIPFCPDGVDPNQYTKVILCQLEVYQKSLKMAQRQLLNKKGFGEPVLPRPPSLIQNECGQGEQASEKNECISEDMGDEDKEERQESRASDWHSKTKDFQESSIKSLKEKLLLEEEPTTSHGQSSQGIVEETSEEGNSVPASQSVAALTSKRSLVLMPESSAEEITVCPETQLSSSETFDLEREVSPGSRDILDGVRIIMADKEVGNKEDAEKEVAISTFSSSNQVSCPLCDQCFPPTKIERHAMYCNGLMEEDTVLTRRQKEAKTKSDSGTAAQTSLDIDKNEKCYLCKSLVPFREYQCHVDSCLQLAKADQGDGPEGSGRACSTVEGKWQQRLKNPKEKGHSEGRLLSFLEQSEHKTSDADIKSSETGAFRVPSPGMEEAGCSREMQSSFTRRDLNESPVKSFVSISEATDCLVDFKKQVTVQPGSRTRTKAGRGRRRKF
notes: endogenous prey from cell lysate
For the molecule B2, the binding result in the experiment with BRCA1 S1655F [3], with BRCA1 5382insC [4] and with BRCA1 M1775R [5] was “no binding” each time.

B3: RBBP8 (other, human, UniProt Q99708 1-897, looked up)
chain: MNISGSSCGSPNSADTSSDFKDLWTKLKECHDREVQGLQVKVTKLKQERILDAQRLEEFFTKNQQLREQQKVLHETIKVLEDRLRAGLCDRCAVTEEHMRKKQQEFENIRQQNLKLITELMNERNTLQEENKKLSEQLQQKIENDQQHQAAELECEEDVIPDSPITAFSFSGVNRLRRKENPHVRYIEQTHTKLEHSVCANEMRKVSKSSTHPQHNPNENEILVADTYDQSQSPMAKAHGTSSYTPDKSSFNLATVVAETLGLGVQEESETQGPMSPLGDELYHCLEGNHKKQPFEESTRNTEDSLRFSDSTSKTPPQEELPTRVSSPVFGATSSIKSGLDLNTSLSPSLLQPGKKKHLKTLPFSNTCISRLEKTRSKSEDSALFTHHSLGSEVNKIIIQSSNKQILINKNISESLGEQNRTEYGKDSNTDKHLEPLKSLGGRTSKRKKTEEESEHEVSCPQASFDKENAFPFPMDNQFSMNGDCVMDKPLDLSDRFSAIQRQEKSQGSETSKNKFRQVTLYEALKTIPKGFSSSRKASDGNCTLPKDSPGEPCSQECIILQPLNKCSPDNKPSLQIKEENAVFKIPLRPRESLETENVLDDIKSAGSHEPIKIQTRSDHGGCELASVLQLNPCRTGKIKSLQNNQDVSFENIQWSIDPGADLSQYKMDVTVIDTKDGSQSKLGGETVDMDCTLVSETVLLKMKKQEQKGEKSSNEERKMNDSLEDMFDRTTHEEYESCLADSFSQAADEEEELSTATKKLHTHGDKQDKVKQKAFVEPYFKGDERETSLQNFPHIEVVRKKEERRKLLGHTCKECEIYYADMPAEEREKKLASCSRHRFRYIPPNTPENFWEVGFPSTQTCMERGYIKEDLDPCPRPKRRQPYNAIFSPKGKEQKT
notes: as for B2
For B3, the binding result with BRCA1 S1655F [6], with BRCA1 5382insC [7] and in the experiment with BRCA1 M1775R [8] was “no binding” each time.

B4: S100 Calcium Binding Protein A3 (other, human, UniProt P33764 2-101, looked up)
chain: ARPLEQAVAAIVCTFQEYAGRCGDKYKLCQAELKELLQKELATWTPTEFRECDYNKFMSVLDTNKDCEVDFVEYVRSLACLCLYCHEYFKDCPSEPPCSQ
notes: endogenous prey from cell lysate; also called S100A3
Consider B4, for which the binding result with AKT3 E17K mutant was “no binding”.

B5: keratin KRT32 (other, human, UniProt Q14532 1-448, looked up)
chain: MTSSCCVTNNLQASLKSCPRPASVCSSGVNCRPELCLGYVCQPMACLPSVCLPTTFRPASCLSKTYLSSSCQAASGISGSMGPGSWYSEGAFNGNEKETMQFLNDRLASYLTRVRQLEQENAELESRIQEASHSQVLTMTPDYQSHFRTIEELQQKILCTKAENARMVVNIDNAKLAADDFRAKYEAELAMRQLVEADINGLRRILDDLTLCKADLEAQVESLKEELMCLKKNHEEEVGSLRCQLGDRLNIEVDAAPPVDLTRVLEEMRCQYEAMVEANRRDVEEWFNMQMEELNQQVATSSEQLQNYQSDIIDLRRTVNTLEIELQAQHSLRDSLENTLTESEARYSSQLAQMQCMITNVEAQLAEIRADLERQNQEYQVLLDVRARLEGEINTYRSLLENEDCKLPCNPCSTPSCTTCVPSPCVPRTVCVPRTVGMPCSPCPQGRY
notes: as for B2
In the case of B5, the binding result with AKT3 E17K mutant is listed as “no binding”.

B6: CSTB (other, human, UniProt P04080 1-98, looked up)
chain: MMCGAPSATQPATAETQHIADQVRSQLEEKENKKFPVFKAVSFKSQVVAGTNYFIKVHVGDEDFVHLRVFQSLPHENKPLTLSNYQTNKAKHDELTYF
notes: as for B2
On to B6, for which the binding result with AKT1 E17K mutant is “no binding”.

B7: SPRR3 (other, human, UniProt Q9UBC9 2-169, looked up)
chain: SSYQQKQTFTPPPQLQQQQVKQPSQPPPQEIFVPTTKEPCHSKVPQPGNTKIPEPGCTKVPEPGCTKVPEPGCTKVPEPGCTKVPEPGCTKVPEPGCTKVPEPGYTKVPEPGSIKVPDQGFIKFPEPGAIKVPEQGYTKVPVPGYTKLPEPCPSTVTPGPAQQKTKQK
notes: as for B2
Take B7: the binding result with AKT1 E17K mutant is “no binding”.
